Assay results as given in patent US12384850 (SYSTIMMUNE, dated 2025).

How the values were obtained:
human PD-L1 = molecular target: T1, human PD-L1 (human, UniProt Q9NZQ7 19-290); assay: FACS on human PD-L1 transfected CHO cells
T1 construct: whole, on cells; also called PDL1 expressing CHO cells; human PD-L1 transfected CHO cells
Procedure: (§1) Example 3: FACS Analysis of Tetra-Specific GNC Antibody Binding to Human PDL1 Transfected CHO Cells The tetra-specific GNC antibodies listed in TABLEs 3 and 4 were tested for binding to Chinese hamster ovary cells (CHO) cells stably expressing full length human ROR1. Antibodies were prepared at 2× final concentration and titrated 1:5 across 3 wells of a 96 well plate in 50 ul of PBS/2% FBS and then 5,000 ROR1-CHO cells in 50 ul PBS/2% FBS were added. This mixture was incubated for 30 minutes on ice, washed once with 200 ul PBS/2% FBS, and then the secondary antibody PE Goat anti-Human IgG Fc at 1:1000 dilution of stock was added, and this mixture was incubated for 30 minutes on ice. Cells were washed 2×200 ul PBS/2% FBS, resuspended in 50 ul PBS/2% FBS and analyzed on a BD LSRFORTESSA and the binding profile is shown in FIG. 6.

full-length human ROR1 = molecular target: T2, full-length human ROR1 (human, UniProt Q01973 30-937); assay: FACS on CHO cells stably expressing full-length human ROR1
T2 construct: whole, on cells; also called human ROR1 transfected CHO cells; ROR1-CHO cells
T2 sequence (Q01973 30-937): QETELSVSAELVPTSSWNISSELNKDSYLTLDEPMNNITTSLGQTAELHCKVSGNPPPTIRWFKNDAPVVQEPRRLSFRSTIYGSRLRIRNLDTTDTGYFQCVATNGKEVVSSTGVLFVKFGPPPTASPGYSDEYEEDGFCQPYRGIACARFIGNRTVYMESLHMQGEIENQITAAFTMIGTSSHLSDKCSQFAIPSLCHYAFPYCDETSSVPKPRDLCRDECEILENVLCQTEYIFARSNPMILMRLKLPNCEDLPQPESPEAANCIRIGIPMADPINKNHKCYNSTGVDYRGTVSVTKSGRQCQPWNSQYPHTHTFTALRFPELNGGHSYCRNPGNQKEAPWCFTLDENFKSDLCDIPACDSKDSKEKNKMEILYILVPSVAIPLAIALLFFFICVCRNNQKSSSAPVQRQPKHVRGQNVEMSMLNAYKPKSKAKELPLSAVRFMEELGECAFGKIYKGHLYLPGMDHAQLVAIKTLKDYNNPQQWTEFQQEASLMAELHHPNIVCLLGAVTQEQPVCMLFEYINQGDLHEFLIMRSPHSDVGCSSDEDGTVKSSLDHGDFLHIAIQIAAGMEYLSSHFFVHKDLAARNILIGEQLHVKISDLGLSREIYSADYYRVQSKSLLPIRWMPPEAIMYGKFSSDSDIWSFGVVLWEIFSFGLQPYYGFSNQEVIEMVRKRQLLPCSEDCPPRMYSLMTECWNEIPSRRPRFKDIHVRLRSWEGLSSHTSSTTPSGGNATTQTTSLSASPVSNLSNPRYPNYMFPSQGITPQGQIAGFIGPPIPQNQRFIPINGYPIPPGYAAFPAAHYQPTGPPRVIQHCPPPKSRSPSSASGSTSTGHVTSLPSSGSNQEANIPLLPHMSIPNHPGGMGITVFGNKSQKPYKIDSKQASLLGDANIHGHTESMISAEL
Procedure: as §1, with “Example 1:” for “Example 3:”, “Tetra-Specific Specific” for “Tetra-Specific GNC”, “Human ROR1” for “Human PDL1”, “expressing a […]” for “expressing full length”, “FIG. 4.” for “FIG. 6.”

human 41BB = molecular target: T3, human 41BB (human, UniProt Q07011 24-255); assay: FACS on human 41BB transfected CHO cells
T3 construct: whole, on cells; also called 41BB expressing CHO cells; human 41BB transfected CHO cells
T3 sequence (Q07011 24-255): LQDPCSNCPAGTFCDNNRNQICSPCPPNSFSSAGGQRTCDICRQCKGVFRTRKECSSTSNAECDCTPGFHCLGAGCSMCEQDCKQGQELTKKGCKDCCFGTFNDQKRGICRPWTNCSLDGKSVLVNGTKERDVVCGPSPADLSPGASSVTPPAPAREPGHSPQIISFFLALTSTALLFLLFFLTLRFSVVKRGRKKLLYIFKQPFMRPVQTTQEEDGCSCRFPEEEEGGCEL
Procedure: as §1, with “2:” for “3:”, “41BB” for “PDL1”, “a […]” for “full length”, “5. All of the tetra-specific GNC antibodies except for the control SI-27E12 contain a 41BB binding domain, 460C3, 420H5, or 466F6 and bound to 41BB expressing CHO cells with varying intensity.” for “6.”

T1 sequence (Q9NZQ7 19-290): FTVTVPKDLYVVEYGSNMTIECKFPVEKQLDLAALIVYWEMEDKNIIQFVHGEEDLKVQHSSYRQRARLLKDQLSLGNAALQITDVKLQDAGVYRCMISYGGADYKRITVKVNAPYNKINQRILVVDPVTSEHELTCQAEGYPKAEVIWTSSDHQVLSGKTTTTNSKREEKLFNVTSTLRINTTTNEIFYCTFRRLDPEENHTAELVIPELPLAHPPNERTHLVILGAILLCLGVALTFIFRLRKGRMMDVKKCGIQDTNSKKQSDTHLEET

Binder	binding result (human PD-L1)	binding result (full-length human ROR1)	binding result (human 41BB)
SI-35E18 (460C3-L1H1-scFv × PL230C6-Fab × 323H7-H4L1-scFv × 284A10-H1L1-scFv) (bispecific antibody, human IgG1, kappa, Tetra-specific GNC antibody (41BB x PD-L1 x ROR1 x CD3), IgG1 null2 Fc) heavy: not shown light: AYDMTQSPSSVSASVGDRVTIKCQASEDIYSFLAWYQQKPGKAPKLLIHSASSLASGVPSRFSGSGSGTDFTLTISSLQPEDFATYYCQQGYGKNNVDNAFGGGTKVEIKRTVAAPSVFIFPPSDEQLKSGTASVVCLLNNFYPREAKVQWKVDNALQSGNSQESVTEQDSKDSTYSLSSTLTLSKADYEKHKVYACEVTHQGLSSPVTKSFNRGEC	binds	binds	binds
SI-35E2 (bispecific antibody, not shown: small tags and cut ends, the listing has only VHv3/VLv2) heavy (part 1 of 7): DIQMTQSPSTLSASVGDRVTITCQSSQSVYSNWFSWYQQKPGKAPKLLIYSASTLASGVPSRFSGSGSGTEFTLTISSLQPDDFATYYCAGGYNTVIDTFAFGGGTKVEIK heavy (part 2 of 7): EVQLLESGGGLVQPGGSLRLSCAASGIDFSRRYYMCWVRQAPGKGLEWIACIYTGSRDTPHYASSAKGRFTISRDNSKNTLYLQMNSLRAEDTAVYYCAREGSLWGQGTLVTVSS heavy (part 3 of 7): not shown heavy (part 4 of 7): QSLVESGGGLVQPGGSLRLSCTASGFSLSRYYMTWVRQAPGKGLEWIGTIYTSGSTWYASWTKGRFTISKDNTKNTVDLQMNSLRAEDTAVYYCARSYYGGDKTGLGIWGQGTLVTVSS heavy (part 5 of 7): DIQMTQSPSTLSASVGDRVTITCQASQSIDSWLSWYQQKPGKAPKLLIYQASTLASGVPSRFSGSGSGTEFTLTISSLQPDDFATYYCQSAYGVSGTSSYLYTFGGGTKVEIK heavy (part 6 of 7): EVKLDETGGGLVQPGRPMKLSCVASGFTFSDYWMNWVRQSPEKGLEWVAQIRNKPYNYETYYSDSVKGRFTISRDDSKSSVYLQMNNLRVEDMGIYYCTGSYYGMDYWGQGTSVTVSS heavy (part 7 of 7): DVVMTQTPLSLPVSLGDQASISCRSSQSLVHSNGNTYLRWYLQKPGQSPKVLIYKVSNRFSGVPDRFSGSGSGTDFTLKISRVEAEDLGVYFCSQSTHVPWTFGGGTKLEIK light: AYDMTQSPSSVSASVGDRVTIKCQASEDIYSFLAWYQQKPGKAPKLLIHSASSLASGVPSRFSGSGSGTDFTLTISSLQPEDFATYYCQQGYGKNNVDNAFGGGTKVEIKRTVAAPSVFIFPPSDEQLKSGTASVVCLLNNFYPREAKVQWKVDNALQSGNSQESVTEQDSKDSTYSLSSTLTLSKADYEKHKVYACEVTHQGLSSPVTKSFNRGEC	binds		binds

Now from value to binder:

binding result (human PD-L1)	binding result (full-length human ROR1)	binding result (human 41BB)	Binder
binds		binds	SI-27E13 (bispecific antibody, not shown: small tags and cut ends, the listing has only VHv3/VLv2) heavy (part 1 of 7): DIQMTQSPSTLSASVGDRVTITCQSSQSVYSNWFSWYQQKPGKAPKLLIYSASTLASGVPSRFSGSGSGTEFTLTISSLQPDDFATYYCAGGYNTVIDTFAFGGGTKVEIK heavy (part 2 of 7): EVQLLESGGGLVQPGGSLRLSCAASGIDFSRRYYMCWVRQAPGKGLEWIACIYTGSRDTPHYASSAKGRFTISRDNSKNTLYLQMNSLRAEDTAVYYCAREGSLWGQGTLVTVSS heavy (part 3 of 7): not shown heavy (part 4 of 7): EVKLDETGGGLVQPGRPMKLSCVASGFTFSDYWMNWVRQSPEKGLEWVAQIRNKPYNYETYYSDSVKGRFTISRDDSKSSVYLQMNNLRVEDMGIYYCTGSYYGMDYWGQGTSVTVSS heavy (part 5 of 7): DVVMTQTPLSLPVSLGDQASISCRSSQSLVHSNGNTYLRWYLQKPGQSPKVLIYKVSNRFSGVPDRFSGSGSGTDFTLKISRVEAEDLGVYFCSQSTHVPWTFGGGTKLEIK heavy (part 6 of 7): EVQLVESGGGLVQPGGSLRLSCAASGIDLSSNAMSWVRQAPGKGLEWIGVITGRDITYYASWAKGRFTISRDNSKNTLYLQMNSLRAEDTAVYYCARDGGSSAINSKNIWGQGTLVTVSS heavy (part 7 of 7): DIQMTQSPSTLSASVGDRVTITCQASESISSWLAWYQQKPGKAPKLLIYEASKLASGVPSRFSGSGSGTEFTLTISSLQPDDFATYYCQGYFYFISRTYVNAFGGGTKVEIK light: AYDMTQSPSSVSASVGDRVTIKCQASEDIYSFLAWYQQKPGKAPKLLIHSASSLASGVPSRFSGSGSGTDFTLTISSLQPEDFATYYCQQGYGKNNVDNAFGGGTKVEIKRTVAAPSVFIFPPSDEQLKSGTASVVCLLNNFYPREAKVQWKVDNALQSGNSQESVTEQDSKDSTYSLSSTLTLSKADYEKHKVYACEVTHQGLSSPVTKSFNRGEC
binds			SI-27E12 (bispecific antibody, not shown: small tags and cut ends, the listing has only VHv3/VLv2; also called control SI-27E12) heavy (part 1 of 7): DVVMTQTPLSLPVSLGDQASISCRSSQSLVHSNGNTYLRWYLQKPGQSPKVLIYKVSNRFSGVPDRFSGSGSGTDFTLKISRVEAEDLGVYFCSQSTHVPWTFGGGTKLEIK heavy (part 2 of 7): EVKLDETGGGLVQPGRPMKLSCVASGFTFSDYWMNWVRQSPEKGLEWVAQIRNKPYNYETYYSDSVKGRFTISRDDSKSSVYLQMNNLRVEDMGIYYCTGSYYGMDYWGQGTSVTVSS heavy (part 3 of 7): not shown heavy (part 4 of 7): QSLVESGGGLVQPGGSLRLSCTASGFSLSRYYMTWVRQAPGKGLEWIGTIYTSGSTWYASWTKGRFTISKDNTKNTVDLQMNSLRAEDTAVYYCARSYYGGDKTGLGIWGQGTLVTVSS heavy (part 5 of 7): DIQMTQSPSTLSASVGDRVTITCQASQSIDSWLSWYQQKPGKAPKLLIYQASTLASGVPSRFSGSGSGTEFTLTISSLQPDDFATYYCQSAYGVSGTSSYLYTFGGGTKVEIK heavy (part 6 of 7): EVQLVESGGGLVQPGGSLRLSCAASGIDLSSNAMSWVRQAPGKGLEWIGVITGRDITYYASWAKGRFTISRDNSKNTLYLQMNSLRAEDTAVYYCARDGGSSAINSKNIWGQGTLVTVSS heavy (part 7 of 7): DIQMTQSPSTLSASVGDRVTITCQASESISSWLAWYQQKPGKAPKLLIYEASKLASGVPSRFSGSGSGTEFTLTISSLQPDDFATYYCQGYFYFISRTYVNAFGGGTKVEIK light: AYDMTQSPSSVSASVGDRVTIKCQASEDIYSFLAWYQQKPGKAPKLLIHSASSLASGVPSRFSGSGSGTDFTLTISSLQPEDFATYYCQQGYGKNNVDNAFGGGTKVEIKRTVAAPSVFIFPPSDEQLKSGTASVVCLLNNFYPREAKVQWKVDNALQSGNSQESVTEQDSKDSTYSLSSTLTLSKADYEKHKVYACEVTHQGLSSPVTKSFNRGEC
		binds	SI-27E15 (bispecific antibody, not shown: small tags and cut ends, also called control SI-27E15) heavy (part 1 of 7): DIQMTQSPSTLSASVGDRVTITCQSSQSVYSNWFSWYQQKPGKAPKLLIYSASTLASGVPSRFSGSGSGTEFTLTISSLQPDDFATYYCAGGYNTVIDTFAFGGGTKVEIK heavy (part 2 of 7): EVQLLESGGGLVQPGGSLRLSCAASGIDFSRRYYMCWVRQAPGKGLEWIACIYTGSRDTPHYASSAKGRFTISRDNSKNTLYLQMNSLRAEDTAVYYCAREGSLWGQGTLVTVSS heavy (part 3 of 7): not shown heavy (part 4 of 7): QSLVESGGGLVQPGGSLRLSCTASGFSLSRYYMTWVRQAPGKGLEWIGTIYTSGSTWYASWTKGRFTISKDNTKNTVDLQMNSLRAEDTAVYYCARSYYGGDKTGLGIWGQGTLVTVSS heavy (part 5 of 7): DIQMTQSPSTLSASVGDRVTITCQASQSIDSWLSWYQQKPGKAPKLLIYQASTLASGVPSRFSGSGSGTEFTLTISSLQPDDFATYYCQSAYGVSGTSSYLYTFGGGTKVEIK heavy (part 6 of 7): EVQLVESGGGLVQPGGSLRLSCAASGIDLSSNAMSWVRQAPGKGLEWIGVITGRDITYYASWAKGRFTISRDNSKNTLYLQMNSLRAEDTAVYYCARDGGSSAINSKNIWGQGTLVTVSS heavy (part 7 of 7): DIQMTQSPSTLSASVGDRVTITCQASESISSWLAWYQQKPGKAPKLLIYEASKLASGVPSRFSGSGSGTEFTLTISSLQPDDFATYYCQGYFYFISRTYVNAFGGGTKVEIK light: DVVMTQTPLSLPVSLGDQASISCRSSQSLVHSNGNTYLRWYLQKPGQSPKVLIYKVSNRFSGVPDRFSGSGSGTDFTLKISRVEAEDLGVYFCSQSTHVPWTFGGGTKLEIKRTVAAPSVFIFPPSDEQLKSGTASVVCLLNNFYPREAKVQWKVDNALQSGNSQESVTEQDSKDSTYSLSSTLTLSKADYEKHKVYACEVTHQGLSSPVTKSFNRGEC
